The target in assay [1] is T1, FcγRIa extracellular domain with C-terminal His tag (human, UniProt P12314 16-292).
T1 construct: extracellular domain; Soluble receptor used as analyte in Biacore; also called FcgRI
The assay can be described thus: SPR (Biacore), antibody captured, FcγR as analyte; binding relative to GpH7-A5/GpH7-B3/GpL16-k0 = 100.

The target of assay [2] is T2, FcγRIIb extracellular domain with C-terminal His tag (human, UniProt P31994 43-217).
T2 construct: extracellular domain; Soluble receptor used as analyte in Biacore; also called FcgRIIb
T2 sequence (looked up): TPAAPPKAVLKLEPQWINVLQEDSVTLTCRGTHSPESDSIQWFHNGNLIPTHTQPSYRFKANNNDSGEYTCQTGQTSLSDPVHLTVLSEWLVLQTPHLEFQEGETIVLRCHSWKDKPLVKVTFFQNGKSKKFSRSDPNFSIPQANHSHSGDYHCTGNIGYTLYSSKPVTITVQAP
The description is as above.

The target of assay [3] is T1, FcγRIa extracellular domain with …. The assay can be described thus: ratio He/Con_1a : He/Con_2b (FcγRIa over FcγRIIb), SPR (Biacore).
Assay [4] deals with T3, FcγRIIa H (FcγRIIa, allotype with His at position 131), extracellular domain with C-terminal His tag (human, UniProt P12318 34-217).
T3 construct: extracellular domain; also called FcgRIIa H; 2aH; not shown: His tag at the C terminus
T3 sequence (looked up): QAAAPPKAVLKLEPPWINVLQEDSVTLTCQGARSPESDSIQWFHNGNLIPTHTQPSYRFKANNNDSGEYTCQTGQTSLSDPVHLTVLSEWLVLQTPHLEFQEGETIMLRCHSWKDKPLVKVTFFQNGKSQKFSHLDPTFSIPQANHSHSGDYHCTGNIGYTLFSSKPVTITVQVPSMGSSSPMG
The assay can be described thus: SPR (Biacore); He/Con_2aH divided by He/Con_2b (FcγRIIb).

Assay [5] has as its target T3, FcγRIIa H (FcγRIIa, allotype with His …). The assay can be described thus: SPR (Biacore), relative binding vs GpH7-A5/GpH7-B3/GpL16-k0.
Assay [6] concerns the target T4, FcγRIIb, extracellular domain with C-terminal His tag (human, UniProt P31994 43-217).
T4 construct: extracellular domain; also called FcgRIIb; 2b; not shown: His tag at the C terminus
T4 sequence (looked up): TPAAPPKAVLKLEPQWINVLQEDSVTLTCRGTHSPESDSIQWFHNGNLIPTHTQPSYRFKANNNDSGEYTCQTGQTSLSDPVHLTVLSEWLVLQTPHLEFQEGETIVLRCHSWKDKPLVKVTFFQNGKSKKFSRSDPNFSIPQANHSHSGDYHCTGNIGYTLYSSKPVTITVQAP
The description is as above.

This note sets out measurements from patent publication US20150344570A1 (published 2015).

T1 sequence (P12314 16-292): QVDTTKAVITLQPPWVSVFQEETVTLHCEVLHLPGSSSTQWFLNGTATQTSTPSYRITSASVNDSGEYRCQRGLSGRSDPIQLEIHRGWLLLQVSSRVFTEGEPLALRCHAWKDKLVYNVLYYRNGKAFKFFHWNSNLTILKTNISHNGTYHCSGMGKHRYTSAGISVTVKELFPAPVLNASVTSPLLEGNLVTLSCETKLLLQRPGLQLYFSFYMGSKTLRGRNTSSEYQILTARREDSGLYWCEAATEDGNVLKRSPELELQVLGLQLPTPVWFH

B1: GpH7-A5/GpH7-B3 variant P331_03V/GpL16-k0 (antibody, human IgG1, kappa)
heavy 1: not shown
heavy 2: not shown
light: DIVMTQSPLSLPVTPGEPASISCQASESLVHSNRNTYLHWYLQKPGQSPQLLIYKVSNRFSGVPDRFSGSGSGTDFTLKISRVEAEDVGVYYCSQNTHVPPTFGQGTKVEIERTVAAPSVFIFPPSDEQLKSGTASVVCLLNNFYPREAKVQWKVDNALQSGNSQESVTEQDSKDSTYSLSSTLTLSKADYEKHKVYACEVTHQGLSSPVTKSFNRGEC
notes: Heterodimerized IgG1, mutation in the GpH7-B3 chain only; also called He Ab
In assay [1], B1 yielded a He/Con_1a of 92 control = 100. The same molecule displayed a He/Con_2b in assay [2] of 119 control = 100. Further, in assay [3], the “He_1a/2b (Ia/IIb)” value worked out at 0.78.

B2: GpH7-A5/GpH7-B3 variant K326_06M/GpL16-k0 (antibody, human IgG1, kappa)
heavy 1: not shown
heavy 2: not shown
light: DIVMTQSPLSLPVTPGEPASISCQASESLVHSNRNTYLHWYLQKPGQSPQLLIYKVSNRFSGVPDRFSGSGSGTDFTLKISRVEAEDVGVYYCSQNTHVPPTFGQGTKVEIERTVAAPSVFIFPPSDEQLKSGTASVVCLLNNFYPREAKVQWKVDNALQSGNSQESVTEQDSKDSTYSLSSTLTLSKADYEKHKVYACEVTHQGLSSPVTKSFNRGEC
notes: Heterodimerized anti-glypican-3 IgG1; mutation in one H chain only; also called He Ab
Take B2: in assay [4], the “He_2aH/2b (IIaH/IIb)” value was found to be 0.63 ratio. Also, the He/Con_2aH in assay [5] is 103 % of HeCon Ab (=100). In assay [6], the He/Con_2b is 165 % of HeCon Ab (=100).

B3: GpH7-A5/GpH7-B3 variant N325_20W/GpL16-k0 (antibody, human IgG1, kappa)
heavy 1: not shown
heavy 2: not shown
light: DIVMTQSPLSLPVTPGEPASISCQASESLVHSNRNTYLHWYLQKPGQSPQLLIYKVSNRFSGVPDRFSGSGSGTDFTLKISRVEAEDVGVYYCSQNTHVPPTFGQGTKVEIERTVAAPSVFIFPPSDEQLKSGTASVVCLLNNFYPREAKVQWKVDNALQSGNSQESVTEQDSKDSTYSLSSTLTLSKADYEKHKVYACEVTHQGLSSPVTKSFNRGEC
notes: as for B1
The molecule B3 registered a He/Con_1a in assay [1] of 93.8 control = 100. This molecule returned a He/Con_2b in assay [2] of 169 control = 100. The “He_1a/2b (Ia/IIb)” value in assay [3] worked out at 0.56.

B4: GpH7-A5/GpH7-B3 variant K326_15Y/GpL16-k0 (antibody, human IgG1, kappa)
heavy 1: not shown
heavy 2: not shown
light: DIVMTQSPLSLPVTPGEPASISCQASESLVHSNRNTYLHWYLQKPGQSPQLLIYKVSNRFSGVPDRFSGSGSGTDFTLKISRVEAEDVGVYYCSQNTHVPPTFGQGTKVEIERTVAAPSVFIFPPSDEQLKSGTASVVCLLNNFYPREAKVQWKVDNALQSGNSQESVTEQDSKDSTYSLSSTLTLSKADYEKHKVYACEVTHQGLSSPVTKSFNRGEC
notes: as for B2
Take B4: the “He_2aH/2b (IIaH/IIb)” value in assay [4] is 0.62 ratio. The He/Con_2aH in assay [5] is 98.3 % of HeCon Ab (=100). In assay [6], the He/Con_2b was 159 % of HeCon Ab (=100).

B5: GpH7-A5/GpH7-B3 variant K326_07I/GpL16-k0 (antibody, human IgG1, kappa)
heavy 1: not shown
heavy 2: not shown
light: DIVMTQSPLSLPVTPGEPASISCQASESLVHSNRNTYLHWYLQKPGQSPQLLIYKVSNRFSGVPDRFSGSGSGTDFTLKISRVEAEDVGVYYCSQNTHVPPTFGQGTKVEIERTVAAPSVFIFPPSDEQLKSGTASVVCLLNNFYPREAKVQWKVDNALQSGNSQESVTEQDSKDSTYSLSSTLTLSKADYEKHKVYACEVTHQGLSSPVTKSFNRGEC
notes: as for B2
As to B5, the “He_2aH/2b (IIaH/IIb)” value in assay [4] worked out at 0.5 ratio. For the same molecule, the He/Con_2aH in assay [5] was 100 % of HeCon Ab (=100). Besides, the He/Con_2b in assay [6] is 199 % of HeCon Ab (=100).

B6: GpH7-A5/GpH7-B3 variant K326_14T/GpL16-k0 (antibody, human IgG1, kappa)
heavy 1: not shown
heavy 2: not shown
light: DIVMTQSPLSLPVTPGEPASISCQASESLVHSNRNTYLHWYLQKPGQSPQLLIYKVSNRFSGVPDRFSGSGSGTDFTLKISRVEAEDVGVYYCSQNTHVPPTFGQGTKVEIERTVAAPSVFIFPPSDEQLKSGTASVVCLLNNFYPREAKVQWKVDNALQSGNSQESVTEQDSKDSTYSLSSTLTLSKADYEKHKVYACEVTHQGLSSPVTKSFNRGEC
notes: as for B2
As to B6, in assay [4], the “He_2aH/2b (IIaH/IIb)” value amounted to 0.77 ratio. Moreover, the He/Con_2aH in assay [5] is 114 % of HeCon Ab (=100). Also, the He/Con_2b in assay [6] was 150 % of HeCon Ab (=100).

B7: GpH7-A5/GpH7-B3 variant P331_16H/GpL16-k0 (antibody, human IgG1, kappa)
heavy 1: not shown
heavy 2: not shown
light: DIVMTQSPLSLPVTPGEPASISCQASESLVHSNRNTYLHWYLQKPGQSPQLLIYKVSNRFSGVPDRFSGSGSGTDFTLKISRVEAEDVGVYYCSQNTHVPPTFGQGTKVEIERTVAAPSVFIFPPSDEQLKSGTASVVCLLNNFYPREAKVQWKVDNALQSGNSQESVTEQDSKDSTYSLSSTLTLSKADYEKHKVYACEVTHQGLSSPVTKSFNRGEC
notes: as for B1
B7 came in with a He/Con_1a in assay [1] of 92.4 control = 100. Also, the He/Con_2b in assay [2] was 116 control = 100. Also, the “He_1a/2b (Ia/IIb)” value in assay [3] came to 0.8.

B8: GpH7-A5/GpH7-B3 variant K326_19Q/GpL16-k0 (antibody, human IgG1, kappa)
heavy 1: not shown
heavy 2: not shown
light: DIVMTQSPLSLPVTPGEPASISCQASESLVHSNRNTYLHWYLQKPGQSPQLLIYKVSNRFSGVPDRFSGSGSGTDFTLKISRVEAEDVGVYYCSQNTHVPPTFGQGTKVEIERTVAAPSVFIFPPSDEQLKSGTASVVCLLNNFYPREAKVQWKVDNALQSGNSQESVTEQDSKDSTYSLSSTLTLSKADYEKHKVYACEVTHQGLSSPVTKSFNRGEC
notes: as for B2
Turning to B8, the “He_2aH/2b (IIaH/IIb)” value in assay [4] was 0.73 ratio. The He/Con_2aH in assay [5] was 101 % of HeCon Ab (=100). Also, the He/Con_2b in assay [6] is 139 % of HeCon Ab (=100).
